Legend:
Proleukin® (aldesleukin) [1] = biological target: T1, Proleukin® (aldesleukin) (human, UniProt P60568 21-153, limits assumed); experiment: ELISA, coated Proleukin, HEK293F supernatant 1:2
T1 construct: Variant of human wt IL-2 with C145S (C125S on mature IL-2); also called IL-2 (Proleukin®); human IL-2 (Proleukin)

Proleukin® (aldesleukin) [2] = biological target: T1, Proleukin® (aldesleukin); experiment: ELISA, coated Proleukin, serially diluted supernatant

T1 sequence (P60568 other isoform, or with tags, fused parts or gaps limits assumed): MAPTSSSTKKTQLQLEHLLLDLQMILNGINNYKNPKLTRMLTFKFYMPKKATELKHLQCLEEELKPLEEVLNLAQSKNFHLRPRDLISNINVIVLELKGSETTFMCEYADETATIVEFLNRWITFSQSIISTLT

| Binder | ELISA value (Normal ELISA) (Proleukin® (aldesleukin) [1]) [luminescence signal] | ELISA value (wash 3x every hour for 4 HRS) (Proleukin® (aldesleukin) [1]) [luminescence signal] | ELISA value (wash 3x every hour for 12 HRS) (Proleukin® (aldesleukin) [1]) [luminescence signal] | EC50 (Proleukin® (aldesleukin) [2]) [nM] |
| --- | --- | --- | --- | --- |
| Antibody No: 27 (antibody, human IgG1, kappa, N297A, V domains shown, VH N58Y + T30S; VK M33L; HEK293F supernatant) VH: EVQLVQSGAEVKKPGESLKISCKGSGYAFSNYLIEWVRQMPGKGLEWMGVINPGSGGTYYNEKFKGQVTISADKSISTAYLQWSSLKASDTAMYYCARWRGEGYYAYFDVWGQGTTVTVSS VL: AIRLTQSPSSFSASTGDRVTITCKASQSVDYQGDSYLNWYQQKPGKAPKLLIYAASNLESGVPSRFSGSGSGTDFTLTISSLQSEDFATYYCQQSNEDPYTFGGGTKVEIKR | 7760 | 7000 | 2770 | 0.39 |
| Antibody No: 28 (antibody, human IgG1, kappa, N297A, V domains shown, VH N58Y + T30S; VK A50S; HEK293F supernatant; 108930 is kept apart) VH: EVQLVQSGAEVKKPGESLKISCKGSGYAFSNYLIEWVRQMPGKGLEWMGVINPGSGGTYYNEKFKGQVTISADKSISTAYLQWSSLKASDTAMYYCARWRGEGYYAYFDVWGQGTTVTVSS VL: AIRLTQSPSSFSASTGDRVTITCKASQSVDYQGDSYMNWYQQKPGKAPKLLIYSASNLESGVPSRFSGSGSGTDFTLTISSLQSEDFATYYCQQSNEDPYTFGGGTKVEIKR | 18500 | 18100 | 5870 | 0.16 |
| Antibody No: 29 (antibody, human IgG1, kappa, N297A, V domains shown, VH N58Y + T30S; VK A50T; HEK293F supernatant) VH: EVQLVQSGAEVKKPGESLKISCKGSGYAFSNYLIEWVRQMPGKGLEWMGVINPGSGGTYYNEKFKGQVTISADKSISTAYLQWSSLKASDTAMYYCARWRGEGYYAYFDVWGQGTTVTVSS VL: AIRLTQSPSSFSASTGDRVTITCKASQSVDYQGDSYMNWYQQKPGKAPKLLIYTASNLESGVPSRFSGSGSGTDFTLTISSLQSEDFATYYCQQSNEDPYTFGGGTKVEIKR | 6950 | 6850 | 2720 | 0.24 |
| Antibody No: 30 (antibody, human IgG1, kappa, N297A, V domains shown, VH N58Y + T30S; VK M33L + A50S; HEK293F supernatant) VH: EVQLVQSGAEVKKPGESLKISCKGSGYAFSNYLIEWVRQMPGKGLEWMGVINPGSGGTYYNEKFKGQVTISADKSISTAYLQWSSLKASDTAMYYCARWRGEGYYAYFDVWGQGTTVTVSS VL: AIRLTQSPSSFSASTGDRVTITCKASQSVDYQGDSYLNWYQQKPGKAPKLLIYSASNLESGVPSRFSGSGSGTDFTLTISSLQSEDFATYYCQQSNEDPYTFGGGTKVEIKR | 14900 | 14400 | 2800 | 0.22 |
| Antibody No: 31 (antibody, human IgG1, kappa, N297A, V domains shown, VK WT; HEK293F supernatant) VH: EVQLVQSGAEVKKPGESLKISCKGSGYAFSNYLIEWVRQMPGKGLEWMGVINPGSGGTYYNEKFKGQVTISADKSISTAYLQWSSLKASDTAMYYCARWRGEGYYAYYDVWGQGTTVTVSS VL: AIRLTQSPSSFSASTGDRVTITCKASQSVDYQGDSYMNWYQQKPGKAPKLLIYAASNLESGVPSRFSGSGSGTDFTLTISSLQSEDFATYYCQQSNEDPYTFGGGTKVEIKR | 11400 | 10300 | 3400 | 0.39 |
| Antibody No: 32 (antibody, human IgG1, kappa, N297A, V domains shown, VK M33L; HEK293F supernatant) VH: EVQLVQSGAEVKKPGESLKISCKGSGYAFSNYLIEWVRQMPGKGLEWMGVINPGSGGTYYNEKFKGQVTISADKSISTAYLQWSSLKASDTAMYYCARWRGEGYYAYYDVWGQGTTVTVSS VL: AIRLTQSPSSFSASTGDRVTITCKASQSVDYQGDSYLNWYQQKPGKAPKLLIYAASNLESGVPSRFSGSGSGTDFTLTISSLQSEDFATYYCQQSNEDPYTFGGGTKVEIKR | 7190 | 6210 | 3330 | 0.65 |
| Antibody No: 33 (antibody, human IgG1, kappa, N297A, V domains shown, VK A50S; HEK293F supernatant) VH: EVQLVQSGAEVKKPGESLKISCKGSGYAFSNYLIEWVRQMPGKGLEWMGVINPGSGGTYYNEKFKGQVTISADKSISTAYLQWSSLKASDTAMYYCARWRGEGYYAYYDVWGQGTTVTVSS VL: AIRLTQSPSSFSASTGDRVTITCKASQSVDYQGDSYMNWYQQKPGKAPKLLIYSASNLESGVPSRFSGSGSGTDFTLTISSLQSEDFATYYCQQSNEDPYTFGGGTKVEIKR | 3990 | 3570 | 1820 | 0.67 |
| Antibody No: 34 (antibody, human IgG1, kappa, N297A, V domains shown, VK A50T; HEK293F supernatant) VH: EVQLVQSGAEVKKPGESLKISCKGSGYAFSNYLIEWVRQMPGKGLEWMGVINPGSGGTYYNEKFKGQVTISADKSISTAYLQWSSLKASDTAMYYCARWRGEGYYAYYDVWGQGTTVTVSS VL: AIRLTQSPSSFSASTGDRVTITCKASQSVDYQGDSYMNWYQQKPGKAPKLLIYTASNLESGVPSRFSGSGSGTDFTLTISSLQSEDFATYYCQQSNEDPYTFGGGTKVEIKR | 3860 | 3080 | 1360 | 0.65 |
| Antibody No: 35 (antibody, human IgG1, kappa, N297A, V domains shown, VK M33L + A50S; HEK293F supernatant) VH: EVQLVQSGAEVKKPGESLKISCKGSGYAFSNYLIEWVRQMPGKGLEWMGVINPGSGGTYYNEKFKGQVTISADKSISTAYLQWSSLKASDTAMYYCARWRGEGYYAYYDVWGQGTTVTVSS VL: AIRLTQSPSSFSASTGDRVTITCKASQSVDYQGDSYLNWYQQKPGKAPKLLIYSASNLESGVPSRFSGSGSGTDFTLTISSLQSEDFATYYCQQSNEDPYTFGGGTKVEIKR | 4910 | 4040 | 1790 | 0.72 |

Source: patent US20210246200A1 (UNIVERSIT T Z RICH, published 2021)
